According to US20050244864A1, “Development and use of fluorescent probes of unbound analytes” (priority 2004, published 2005):

Assays:
[1] = Screening of FFA-insensitive probes for response to UCB:BSA complexes (ΔI/Io); assay type: binding; conditions: fractional change in fluorescence intensity
Method: A probe for unbound unconjugated bilirubin (UCBu) was developed and used to measure concentrations of UCBu in plasma spiked with a defined quantity of unconjugated bilirubin (UCB). Using 384-well plates, 335 mutant probes that were insensitive to FFA were screened for their response to UCB:BSA complexes at UCB:BSA ratios of 1:1 and 1:2 in aqueous buffer. All probes were prepared from rI-FABP-L72A with 1 to 5 mutations. Screening was conducted by comparing the fractional change in fluorescence intensity (ΔI/Io, where ΔI is the difference in probe intensity in the presence and absence of UCB and Io is the intensity in the absence of UCB) for the probes with that for ADIFAB2. This value was calculated for two emission wavelengths: 440 and 500 nm. […] The emitted fluorescence of these probes is quenched by binding of UCB.

[2] = Probe calibration: binding affinities for fatty acids
Method: In a preferred embodiment, the template FABP is recombinant rat intestinal fatty acid binding protein (rI-FABP). Derivatization with acrylodan is performed using known methods substantially as previously described (U.S. Pat. No. 5,470,714 & Richieri, G. V, et al., J. Biol. Chem., (1992) 276: 23495-23501), and the resulting probe (ADIFAB) is commercially available (FFA Sciences LLC, San Diego, Calif.). […] The wavelength emitted by the fluorescently-labeled FABP depends upon the label and protein used. In an alternate preferred embodiment, the template protein is rI-FABP that has Ala substituted for Leu at position 72 (rI-FABP-L72A) with the resulting probe named ADIFAB2. […] Experiments typically involve measuring the fluorescence response within both emission maxima or at wavelengths for which the effect of interfering molecules such as hemoglobin can be eliminated as described in (U.S. application Ser. No. 10/670,958 and PCT/US2004/030521) and the calculation of the ratio ‘R’ of the two fluorescence intensities. The baseline value for this ratio, measured in the absence of analyte, is designated R0.
For each probe considered to have a useful phenotype, the sequence is determined, milligram quantities of the probe are prepared and the probe is calibrated. […] Spectra of probes were analyzed for true ratio behavior. […]

binding affinities relative to ADIFAB [2]: about 10 fold
B1: ADIFAB2: rI-FABP with Ala substituted for Leu at position 72 (rI-FABP-L72A), derivatized with acrylodan; reference probe (protein, UniProt P02693 2-132, looked up, variant L72A)
Fatty acid-binding protein, …: AFDGTWKVDRNENYEKFMEKMGINVVKRKLGAHDNLKLTITQEGNKFTVKESSNFRNIDVVFELGVDFAYSAADGTELTGTWTMEGNKLVGKFKRVDNGKELIAVREISGNELIQTYTYEGVEAKRIFKKE
modifications: acrylodan label
ΔI/Io 1:1 UCB:BSA 440 nm ([1]; UCB:BSA 1:1, emission 440 nm): −0.40
ΔI/Io 1:1 UCB:BSA 500 nm ([1]; UCB:BSA 1:1, emission 500 nm): −0.34
ΔI/Io 1:2 UCB:BSA 440 nm ([1]; UCB:BSA 1:2, emission 440 nm): −0.19
ΔI/Io 1:2 UCB:BSA 500 nm ([1]; UCB:BSA 1:2, emission 500 nm): −0.16
